Biological target: T1, 인간 TIGIT-His (human, UniProt Q495A1 22-141)
T1 construct: extracellular domain; also called TIGIT-6x His; TIGIT 항원
T1 sequence: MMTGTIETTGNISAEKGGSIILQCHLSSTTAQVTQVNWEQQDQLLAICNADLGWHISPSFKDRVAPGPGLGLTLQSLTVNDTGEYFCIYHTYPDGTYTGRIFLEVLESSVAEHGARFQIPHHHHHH
Experiment: BLI (Octet QK), antibody on AHC biosensor, human TIGIT-His 15 nM ~ 1.88 nM, 1:1 global fit

Kd: 3.43 nM | koff: 0.00136 s⁻¹ | kon: 397000 M⁻¹ s⁻¹
B1: SA2209 (antibody, V domains shown)
VH: QVQLQESGPGLVKPSGTLSLTCAVSGVSIRQGHWWSWVRQPPGKGLEWIGEIYQTGRTNYNPSLKSRVTISVGKSRNHISLKLSSVTAADTAVYYCTTGSGWYPIDYWGQGTLVTVSS
VL: SYELTQDPAVSVALGQTVRITCQGDSLRGFYASWYQQKPGQAPLLVLYGVKDRPSGIPDRFSGSRSGTTASLTITGAQAEDEADYYCNSRDSNGAMMFGGGTKLTVL
notes: also called 항-TIGIT 항체; anti-TIGIT antibody

— patent KR20220072468A (dated 2022)
